Reference: the supplement of paper PMC12636428

Tested on: Saccharomyces cerevisiae
Test: transcriptional activation domain activity (GFP:mCherry ratio, weighted mean of sorted bins, harmonized to initial dataset scale) (arbitrary fluorescence ratio units); higher = stronger transcriptional activation
Conditions: beta-estradiol 1 µM; induction time 4 h
How it was run: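 Each value is an activation activity: the read-weighted mean of bin median fluorescence, averaged across barcodes, then mapped linearly to the initial dataset scale. The tiles, fused to an estradiol-inducible synthetic transcription factor, sat at the yeast URA3 locus in GFP-reporter diploids. Cells spent 4 hours at 30 °C in SC with 1 uM beta-estradiol before sorting into 8 GFP:mCherry bins, and tiles below 50 reads were removed.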

First: WLIKPEQNNGTWVADVLWPKLNLDLQWIASHWNQSSWDLWWPPVWGVLTGLPL
Second: YGFGGFLSVPLLFFIAFEFPRLHSLLYQLYLFVCVWSWAYYSTIIMFSCHFYP
The “transcriptional activation domain activity” value of the first is higher: 67700 for the first, 57500 for the second.

Compared with “MLQQRGILRVFRIGLFILFVILLFSFLVFVTFFISLAFPHLLLVLCIFFHFFN”, “MRGCLVAGITLLTRFVVASCGRRNVGRMRHRPRGQPLPSSLMLLVVICREFRK” is higher in “transcriptional activation domain activity” value: 44200 for the first, 66500 for the second.

Going from “WWMYLPLLLLLVLMFAPHYSILVLLVSYYLNIHDSPFLFSLHLFVIYLITFLA” to “SSRYDPVKSVFLPLDPMPLPRDFFFSFALILFCPSPFYTSLLSLYLISPLLFP”, the “transcriptional activation domain activity” value rises from 58200 to 60800.

First: KSDVEADRQRLIYSGKVLKDDDILSSCKIQSGHTVHMVKGAARAAAASSSSAP
Second: MCISRYWICLGKGSVLGYHSFIICFYLGLVEMMGYPLFAFFSLLFIRFLLFLS
The “transcriptional activation domain activity” value of the first is higher: 58300 for the first, 43700 for the second.

Going from “RGATPGRKPAAGGPRESAARAARGRGKGGGTGGEGRGRGRARGRGRTRGKRRT” to “DWESIGAASLRNNSLAPNIDSVASSTNGVVSPKPTNPSFTNSQNGDIEPPLQH”, the “transcriptional activation domain activity” value falls from 54900 to 46900.

Going from “EDRHSSKRRRERSRSPVRDTRRRSRSPAARGKNDEDRRDRRRSSSRERDRRRG” to “RIAKRRRKDGEPMLYAPDELKEGRWAPKELIKTMARLRRSIQIVLCLSLLSGF”, the “transcriptional activation domain activity” value rises from 32600 to 77000.

Going from “ALTLEYFYFECSTPVPDGLLTDPLPPLPKLLVIHFFFYLSQHTIYLLLHILSQ” to “FVGFVGSLKRQFLRQQFGLFCWVHMSLLLIVCASHFVMNNILEGMIWFWVPAS”, the “transcriptional activation domain activity” value rises from 60200 to 60400.

Compared with “MRTLHGLVYFFPFILYHRLVFLWLRVLALSRYVFLFSVCFPWSVLVTFVIFLY”, “KVVQQFCGCHSRAANGCSGDELLRQYDYDEEDTVSSNRRFANETCRVAVLTVR” is lower in “transcriptional activation domain activity” value: 80100 for the first, 65900 for the second.

Compared with “KGGKRKRREEDDGEEKDSFGGRRGDDGPSRIAKNEGGDGRAGKHKRSGDDGKE”, “MAQVAVFVVHKFLYGIIPLFEISTCAYFPLLVSLWHLNYLLFYAVMFMRLIIL” is higher in “transcriptional activation domain activity” value: 31100 for the first, 75000 for the second.

Going from “EPVEAEAQAEAEAETKEPETKSEETAAASTETEKVEDKREATTATEKAQAAAS” to “VWVASKVEEDEASDYAAPEKQAKPKRQRGRPKKGGEDKSDVTSTAAAQESAAK”, the “transcriptional activation domain activity” value rises from less than 6570 to 24500.

Going from “QRIIIGSKLILLTRSLLICLLWSLKMAVLDLLAKLMLNMPFERKLIYTLWAIL” to “AAGAAGAKASKAPKASKAAKAPKASGAAGAKKGGKKAGKGAASSGAAKAPAAT”, the “transcriptional activation domain activity” value rises from 41600 to 42400.

Going from “KQYCVRPNSGRIEPGGEVDVQILLQAMKEDPPADAKCRDKFLVQSVLVTADKE” to “MAALLWVLAVCLWIHPLSILAFTFHSVEGFKLVREILLDVLPTFDPHSYQIDG”, the “transcriptional activation domain activity” value rises from 50100 to 53200.

Compared with “MTLTLHPCAQTQFLTAFYCIYCHLTWRCSLLILINMGLGLIQRYVFPLLTFLF”, “MSFFLSFFVLFCFYFYFTPCLFFSSHLLTFFFFSDSPLFVFYFFYFFFSSFVY” is higher in “transcriptional activation domain activity” value: 43400 for the first, 67700 for the second.

Compared with “PAAAAQAPPAAGGKKEEAAAAEVPQAEAAAEGAGSPEGEGKDAQAEAAAPAEG”, “WLMYYIHATGDTKVSLPFNPSRVIKINMVLLSHLVAWINYLPLVVSYVHWRYW” is higher in “transcriptional activation domain activity” value: 16800 for the first, 51000 for the second.

Compared with “GAEYICQYKGGLIGKHFKSFAQIMPYLIYDLVPPSVLDAWTTIGSPVVLLWHT”, “TRNSCVKIEKEDSLTNLNEIDFTNMFCNDNFIQNYNQGLMELLTEPTPGPSSS” is higher in “transcriptional activation domain activity” value: 46000 for the first, 64700 for the second.

Compared with “GLTLLCLRRILQLWAGSDQLSELVSYVPVHLRVLAMRDAAVFAPLSRKVLQAL”, “YSRRDRPRDRGDRGDRDGGEERGGRRDRGDRNDRFGGEDRGGRGRRDGGGGGG” is lower in “transcriptional activation domain activity” value: 57700 for the first, 10400 for the second.

First: EEQEQDAASKAQEGSKDAPAPKSTENKNEKDAAPNDSSPSKFTKKHKAKKPSK
Second: TTKPKEASKPKEDPKPRSKSPVKKEETKVEKPKEDPPKAEAKSIPATTAAAAV
The “transcriptional activation domain activity” value of the first is lower: 24700 for the first, 59300 for the second.

First: VEEQKPVAEEAPVRTKVEESKVQEAPVVEAKAEVAVTAAAAVAATAAVATAAV
Second: MYNTVLAWYCFIFAHVYSFLHCCFYYWFFLAFWLFGLLTYLSFVVGGVFFMPR
The “transcriptional activation domain activity” value of the first is lower: 23500 for the first, 53300 for the second.

Going from “VLLLLYLAFRAQTIEISIPKAKFCCYDTRVRILVPSRGYRSTYMCRISLLLGC” to “HWSYARNANMIVNFFYKNIMGIGVLWWFQIYCGWSTTYVFEYTYLLFWNVFWS”, the “transcriptional activation domain activity” value rises from 19900 to 56200.

Going from “MTSYVHQALVRFIGVTLTYQEYKEKLGRSFYLRNLAENTTMLGFLCWVNILHF” to “LLVLYGLTWAFNLISCMLISTNNGNYISCILGLFNCVFVYTLTKMILYLYFIE”, the “transcriptional activation domain activity” value rises from 33800 to 57000.

First: MGKKRCLERILFLFLYAILFHILLLLLPSFPFLYLYTFAFVFYFSLSIYLVSL
Second: DNLDLASLDPLEQSPSISMEPVSINETGSAYTTTNTALNDIDIPFSINELNEL
The “transcriptional activation domain activity” value of the first is lower: 43600 for the first, 64900 for the second.

First: DMLISFGLDHPSNREDDLDKLCNMTRDVQAIFSQYLKGEESKRSLEDFLSTSN
Second: KLGPTPQCLDGFFFFSLLALASLHPVSPCLLFFFFFLLWFPSSFFWPSVLQVQ
The “transcriptional activation domain activity” value of the first is higher: 67500 for the first, 62500 for the second.

First: KTIGKQDPYCAARLGKEAKKTETDRRGGQTPRWDQELRFTVHDSPDYYQLKVS
Second: MRFSSLLFLFCLFHFPLFFFFFSSFFNFCLPILFLPNLFSPFLFPFSPHLFFF
The “transcriptional activation domain activity” value of the first is higher: 55000 for the first, 51900 for the second.

Compared with “YREIPPEQLHGFPRIVDDINYNPVFLFDTFAAYTTLINYWMHMLILRSNTFLL”, “FHAWVSHIVQLNLFGLLSQTLMLIMFKLDVGTYFFLNDVILCKVYVFSLFVTL” is higher in “transcriptional activation domain activity” value: 53100 for the first, 65400 for the second.

First: KARQDKEPAMTQKDLATKINEKPSVINDYESGRAIPNQQVLGKLERALGVKLR
Second: MKELSFFPISISIQRYSHIRWVLLHCTNYLISFVYHCYVIILSVFFFLYIFTA
The “transcriptional activation domain activity” value of the first is lower: 40000 for the first, 76900 for the second.

First: MLGPFSVFLSVFPPFAAGFGTALFPFFFSCCLCFCCWCTSFALFAPLTALFAV
Second: MHVYVYIIIYNNIWYCMVYSINIHIFVNNYYLLRLLAIYYSYCFIVLLFIMFF
The “transcriptional activation domain activity” value of the first is higher: 53300 for the first, 43500 for the second.

First: GEGESADERRRRRHKRKRDGSDEEDEEERGRKRSRRSKGSDDDRSGDDDEDDE
Second: APKAAAPPPAPVPAPAPVAAPAPAASVELGPDGQPKRRRGRPKGSKNKPKIPP
The “transcriptional activation domain activity” value of the first is lower: 25600 for the first, 35700 for the second.

Going from “TNPDKIRLIPGFKYLQLVLGRDQYCREILAMMARMGFLMPKTMYSTLLRLWLL” to “MSTPFLANLLLIIWPTYYLLALSLHRALFQCTLSDFFSFFFFFFFFLFFLPFF”, the “transcriptional activation domain activity” value falls from 65200 to 52800.

First: ASSTAAASAASSAAAAKGGNNNAGKGAAAAKGGAAAAKGGAAAGGAAAAKGGA
Second: FYPIGRRWQWYWGLWVCACALISLFSNIEVDRYYLQSLPITITIFFWYLMCMG
The “transcriptional activation domain activity” value of the first is lower: 24400 for the first, 28200 for the second.

Going from “MAKLRELMKKLEEEVVGEDGEKRMVQPTIMQEPFRSFFRTAVSVYLPNVLGAK” to “LMILMIINFIILNIPVAVILLIYFVFKIGFYVFIWKRIRFISILLRATVSHLR”, the “transcriptional activation domain activity” value rises from 52600 to 62900.

First: WTCVRRPGGLGGFFFGTWTGWQIWVGLLVFWVGGCTFGLLLMNRFLLLTGVYK
Second: DEEGRKRGGEREKGQHAGDERRRRRRRGEREGRERQKEGRRGPGRQSKDGKEG
The “transcriptional activation domain activity” value of the first is lower: 42000 for the first, 49500 for the second.

Compared with “SRLFDLQLNICLSFQVYWFRNLVDGFPLDIPPLHIASFFGLVEPLTALLKSLG”, “CDTGILLCLVCYLSSKVLLYFFLVEKVHVIRGNNDSRWKDKLFVFNCFGMMLP” is higher in “transcriptional activation domain activity” value: 33100 for the first, 38100 for the second.

Going from “SLNIDSMLDDYVSSDLLLNDDDDDTNLSRRRFSDVITNQFPSMTNSRNSISHS” to “MILKHIHSCHALASFVVSLHSFPLLFSCPSRGLCGIVALETVFLFFFFPLFQL”, the “transcriptional activation domain activity” value rises from 52600 to 75600.

Compared with “MMDCRRRTGFQAFFLSFLSLVLSSFFLLCLFNPYVCVFFLIFHYRLTFSVIWS”, “SLPFHCTLLLVVINLIAVVAILWTRFASKLLGSSVCAFLYIFVGTFTILIHVR” is lower in “transcriptional activation domain activity” value: 49100 for the first, 20500 for the second.

First: PDFYPLFYSRLIPLSVISFLVYTALFFLVFWPQYLFLVIFHGWGAWPTAIILF
Second: REGGGEGGGAQDGSSAPKKKRLGRKERIKSKAAGGDTGGEGADGAAASPEGAG
The “transcriptional activation domain activity” value of the first is higher: 52600 for the first, 39600 for the second.

Going from “TPLLLFFWCLCWFLSRSWYVYCFCYLNDWYNKVMMLWNLFHHHRFLLLYTRGL” to “GGSKRDREDSRKGGKTSSRGGRLTEDGPSSSHTKKPRKGKKGEEAKEGGEKSS”, the “transcriptional activation domain activity” value falls from 35200 to 25100.

First: MHPFSPHCLSLSLLLKFSQLFNISFFLLVMHFLWLDILGFFFILFPNHFPMFG
Second: SFSAYFIACCVVIHVTQLVGSPLYLFNKPLYYAYMARTKQSFGVLVTTITQWW
The “transcriptional activation domain activity” value of the first is lower: 43800 for the first, 68900 for the second.
